Data as given in the DeepSol protein solubility set.

Experiment: soluble on expression in E. coli; label from the status in PepcDB or PDB records

| Sequence | soluble on expression in E. coli |
| --- | --- |
| MGHHHHHHHHHHSSGHIDDDDKHMVGATVAPSSRRDFTFDLYRALASAAPSQNIFFSPVSISMSLAMLSLGAGSSTKMQILEGLGLNLQKSSEKELHRGFQQLLQELNQPRDGFQLSLGNALFTDLVVDLQDTFVSAMKTLYLADTFPTNFRDSAGAMKQINDYVAKQTKGKIVDLLKNLDSNAVVIMVNYIFFKAKWETSFNHKGTQEQDFYVTSETVVRVPMMSREDQYHYLLDRNLSCRVVGVPYQGNATALFILPSEGKMQQVENGLSEKTLRKWLKMFKKRQLELYLPKFSIEGSYQLEKVLPSLGISNVFTSHADLSGISNHSNIQVSEMVHKAVVEVDESGTRAAAATGTIFTFRSARLNSQRLVFNRPFLMFIVDNNILFLGKVNRP | soluble |
| MGHHHHHHHHHHSSGHIEGRHIGSGVEAPEQLEEHGISVYATIPMSEWLDKRTRLRKKNLFSNQQRHRTKNIPFLAVDNPADSAVEAVRALRTSLHFAMMETENNILMITGATPDSGKTFVSSTLAAVIAQSDQKVLFIDADLRRGYSHNLFTVSNEHGLSEYLAGKDELNKVIQHFGKGGFDVITRGQVPPNPSELLMRDRMRQLLEWANDHYDLVIVDTPPMLAVSDAAVVGRSVGTSLLVARFGLNTAKEVSLSMQRLEQAGVNIKGAILNGVIKRASTAYSYGYNYYGYSYSEKE | soluble |
| MGHHHHHHSHAPALGGQQSVSNKLLAWSGVLEWQEKPKPASVDANTKLTRSLPCQVYVNHGENLKTEQWPQKLIMQLIPQQLLTTLGPLFRNSRMVQFHFTNKDLESLKGLYRIMGNGFAGCVHFPHTAPCEVRVLMLLYSSKKKIFMGLIPYDQSGFVNGIRQVITNHKQVQQQKLEQQQRGMGGQQAPPGLGPILEDQARPSQNLLQLRPPQPQPQ | not soluble |
| MGHHHHHHSHDGQLFCKKDYWARYGESCHGCSEQITKGLVMVAGELKYHPECFICLTCGTFIGDGDTYTLVEHSKLYCGHCYYQTVVTPVIEQILPDSPGSHLPHTVTLVSIPASSHGKRGLSVSIDPPHGPPGCGTEHSHTVRVQGVDPGCMSPDVKNSIHVGDRILEINGTPIRNVPLDEIDLLIQETSRLLQLTLEHDP | not soluble |
| MGHHHHHHSHGFYTIKEAERGVVTRFGKFSHLVEPGLNWKPTFIDEVKPVNVEAVRELAASGVMLTSDENVVRVEMNVQYRVTNPEKYLYSVTSPDDSLRQATDSALRGVIGKYTMDRILTEGRTVIRSDTQRELEETIRPYDMGITLLDVNFQAARPPEEVKAAFDDAIAARENEQQYIREAEA | soluble |
| MGHHHHHHSHLPTTNIGSFPQTTEIRHARASFKKGELSLADYEAAMKKEIEYVVRRQEELDLDVLVHGEAERNDMVEYFGELLDGFAFTKFGWVQSYGSRCVKPPVIYGDVTRPEPMTVRWSQYAQSLTNRVMKGMLTGPVTILQWSFVRNDIPRSTVCKQIGVALSDEVLDLEAAGIKVIQIDEPAIREGLPLKRADWDAYLQWAGEAFRLSSMGVQDDTQIHTHMCYSEFNDILPAIAALDADVITIETSRSDMELLTAFADFKYPNDIGPGVYDIHSPRVPTATEVEHLLRKALNVIPKERLWVNPDCGLKTRGWTETIDQLKVMVDVTKK | not soluble |
| MGHHHHHHSHLTVQFVPSQNAGTLEAKAKPLEKLLSKELGIPVKVSVSTNYNTIVEAMKSKKVDVGFLPPTAYTLAHDQKAADLLLQAQRFGVKEDGSASKELVDSYKSEILVKKDSKIKSLKDLKGKKIALQDVTSTAGYTFPLAMLKNEAGINATKDMKIVNVKGHDQAVISLLNGDVDAAAVFNDARNTVKKDQPNVFKDTRILKLTQAIPNDTISVRPDMDKDFQEKLKKAFIDIAKSKEGHKIISEVYSH | not soluble |
| MGHHHHHHSHMAAMLNFNLQQLCGPKCRDLKVENPEKYGFEPKKLLDQLTDIYLQLDCARFAKAIADDQRSYSKELFEEVISKMRKAGIKSTIAIEKFKLLAEKVEEIVAKNARAEIDYSDAPDEFRDPLMDTLMTDPVRLPSGTIMDRSIILRHLLNSPTDPFNRQTLTESMLEPVPELKEQIQAWMREKQNSDH | soluble |
| MGHHHHHHSHMAFPGQSDTKMQWPEVPALPLLSSLCMAMVRKSSALGKEVGRRVKEMVMLVAPFRQSSSLSRTFSSRKVVKAHASLHGARLSPLSRNIRG | not soluble |
| MGHHHHHHSHMALAARLLPQFLHSRSLPCGAVRLRTPAVAEVRLPSATLCYFCRCRLGLGAALFPRSARALAASALPAQGSRWPVLSSPGLPAAFASFPACPQRSYSTEEKPQQHQKTKMIVLGFSNPINWVRTRIKAFLIWAYFDKEFSITEFSEGAKQAFAHVSKLLSQCKFDLLEELVAKEVLHALKEKVTSLPDNHKNALAANIDEIVFTSTGGISIYYDEKGRKFVNILMCFWYLTSANIPSETLRGASVFQVKLGNQNVETKQLLSASYEFQREFTQGVKPDWTIARIEHSKLLE | not soluble |
| MGHHHHHHSHMANSMANSLSSTQTDYRLSDDLLGPVLAILDAYIDPYLAKGLVSAGCVNKLAIEGKRLQLGLVYPYPCMTQYRDTVMALTNKLAVLDAIDEVECEIDFQPKVYSAIASIAPIANVKQVIAVASGKGGVGKSTTAVNLALALAAEGAQVGILDADIYGPSVPLMLGIPNFRPVSPDGKHMTAASAYGIAAQSIGFMLSGDEAAVWRGPMAAGALAQLLNETQWPELDYLVVDMPPGTGDIQLTLSQKVPVSGAVIVTTPQDIALADAKKGITMFQKVNIPVLGIVENMSFHLCPECGHKEHPFGTHGGSKMAERYQVPLLGALPLHINIREAMDVGAPTVVAEPDSEVAALYREIARKVGAELALKQSQKTVSISVSDDE | not soluble |
| MGHHHHHHSHMASATQSVSRLQSIVAGLKNAPSDQLINIFESCVRNPVENIMKILKGIGETFCQHYTQSTDEQPGSHIDFAVNRLKLAEILYYKILETVMVQETRRLHGMDMSVLLEQDIFHRSLMACCLEIVLFAYSSPRTFPWIIEVLNLQPFYFYKVIEVVIRSEEGLSRDMVKHLNSIEEQILESLAWSHDS | not soluble |
| MGHHHHHHSHMASGSNWLSGVNVVLVMAYGSLDLKEEIDIRLSRVQDIKYEPQLLADDDARLLQLETQGNQKIPFHSEGRHPRSLMGKNFRSYLLDLRNTSTPFKGVRKALIDTLLDGYETARYGTGVFGQNEYLRYQEALSELATAVKARIGSSQRHHQSAAKDLTQSPEVSPTTIQVTYLPSSQKSKRAKHFLELKSFKDNYNTLESTL | not soluble |
| MGHHHHHHSHMATASPSVFLLMVNGQVESAQFPEYDDLYCKYCFVYGQDWAPTAGLEEGISQITSKSQDVRQALVWNFPIDVTFKSTNPYGWPQIVLSVYGPDVFGNDVVRGYGAVHVPFSPGRHKRTIPMFVPESTSKLQKFTSLCLVASSDLQAAPPTEDK | not soluble |
| MGHHHHHHSHMFPQAQESPAAVEVLTQVVHPSAAMASQERAQVAFKKMVQGVLQFAVCDTAAAGQLVKDGVTQVVVSEEGAVHMVAGEGAQIIMQEAQGEHMDLVESDGEISQIIVTEELVQAMVQESSGGFSEGTTHYILTELPPGVQGEPGLYSHTVLETADSQELLQAGATLGTEAGAPSRAEQLASVVIYTQEGSSAAAAIQSQRESSELQEA | not soluble |
| MGHHHHHHSHMGEGQIPPAHDSSIFISCDVLLKKISINTRTWLPCSISCSASLLENSPFYFTLFVCDYISHSFHLLINIFSEIMSYHGNGGYNAPYGGHGGYAPPPVHGAPGYMPPTVVHTDGGHHGHVDTHHHEESHHGEHHGGHHGVQHYESHHESHHHGGHHGHH | not soluble |
| MGHHHHHHSHMGEIESYCNKELGPLPTKAPTLSKNVLDLFSLKGKVASVTGSSGGIGWAVAEAYAQAGADVAIWYNSHPADEKAEHLQKTYGVHSKAYKCNISDPKSVEETISQQEKDFGTIDVFVANAGVTWTQGPEIDVDNYDSWNKIISVDLNGVYYCSHNIGKIFKKNGKGSLIITSSISGKIVNIPQLQAPYNTAKAACTHLAKSLAIEWAPFARVNTISPGYIDTDITDFASKDMKAKWWQLTPLGREGLTQELVGGYLYLASNASTFTTGSDVVIDGGYTCP | not soluble |
| MGHHHHHHSHMGKITFYEDRAFQGRSYETTTDCPNLQPYFSRCNSIRVESGCWMLYERPNYQGQQYLLRRGEYPDYQQWMGLSDSIRSCCLIPQTVSHRLRLYEREDHKGLMMELSEDCPSIQDRFHLSEIRSLHVLEGCWVLYELPNYRGRQYLLRPQEYRRCQDWGAMDAKAGSLRRVVDLY | soluble |
| MGHHHHHHSHMGNNSESKGSASDSKGAETFTYKAENGNVKIPKHPKRVVVMADGYYGYFKTLGINVVGAPENVFKNPYYKGKTNGVENIGDGTSVEKVIDLNPDLIIVWTTQGADIKKLEKIAPTVAVKYDKLDNIEQLKEFAKMTGTEDKAEKWLAKWDKKVAAAKTKIKKAVGDKTISIMQTNGKDIYVFGKDFGRGGSIIYKDLGLQATKLTKEKAIDQGPGYTSISLEKLPDFAGDYIFAGPWQSGGDDGGVFESSIWKNLNAVKNGHVYKMDPIGFYFTDPISLEGQLEFITESLTK | soluble |
| MGHHHHHHSHMHAPLSLLKQMLKEHQIDTEKAVTFEEYIAMRLKLQELMGKFASIGEWDLYQKAADLMMHIGIQWMK | not soluble |
| MGHHHHHHSHMHPWNQQVPDKESGGGSHGNAASSCSRFHYSYAGVHSESTHFSLVLLLDWAMAFILCPLTCPGECEGSTGKLECCLCLPSQWAVLTAAPHPYRWSQEAGRVGEGKIGKTGRPRPRQNSLPSLHFWSPVVMCL | not soluble |
| MGHHHHHHSHMIKRSSECNPLLQEPIASAQFGATAGTECRKSVPCGWERVVKQRLFGKTAGRFDVYFISPQGLKFRSKSSLANYLHKNGETSLKPEDFDFTVLSKRGIKSRYKDCSMAALTSHLQNQSNNSNWNLRTRSKCKKDVFMP | soluble |
| MGHHHHHHSHMKPLIWTWSDVEGQRPALLICTAAAGPTQGVKGYGKPFEPRSVKNIHSTPAYPDATMHRQLLAPVEGRMAETLNQKLHVANVLEDDPGYLPHVYSEEGECGGAPSLSSLASLEQELQPDLLDSLGSKATPFEEIYSESGVPS | not soluble |
| MGHHHHHHSHMLVLRSGLTKALASRTLAPQVCSSFATGPRQYDGTFYEFRTYYLKPSNMNAFMENLKKNIHLRTSYSELVGFWSVEFGGRTNKVFHIWKYDNFAHRAEVRKALANCKEWQEQSIIPNLARIDKQETEITYLIPWSKLEKPPKEGVYELAVFQMKPGGPALWGDAFERAINAHVNLGYTKVVGVFHTEYGELNRVHVLWWNESADSRAAGRHKSHEDPRVVAAVRESVNYLVSQQNMLLIPASFSPLK | not soluble |
| MGHHHHHHSHMMEGLDDGPDFLSEEDRGLKAINVDLQSDAALQVDISDALSERDKVKFTVHTKSSLPNFKQNEFSVVRQHEEFIWLHDSFVENEDYAGYIIPPAPPRPDFDASREKLQKLGEGEGSMTKEEFTKMKQELEAEYLAIFKKTVAMHEVFLCRVAAHPILRRDLNFHVFLEYNQDLSVRGK | not soluble |
| MGHHHHHHSHMMQSVDVVIIGGGMVGLALAAALKESDLRIAVVENQLPEEALNPLPDVRVSALSRSSEIVLRNLNAWAGIEARRAAPYIAMEVWEQDSFARIEFKANEMTQPNLGHIVENRVIQLALFEQVQQQANVTLHVPATCQSIAVGESEAWLTLSNGQALSAKLVVGADGANSWLRRQMDIPLTHWDYGHSALVANVRTSDPHNKVARQIFTAQGPLAFLPMSEPHMSSIVWSTEPSRAEALLNMNDVQFNKALTAEFDARLGRCEVVGERQAFPLKMRYARDFVAPRVALVGDAAHTIHPLAGQGVNLGLLDAACLAQELLSLWQQNRDIGDERNLRHYERWRKAEAAKMIAAMQGFRDLFEGDNPAKKLIRGIGMRLVGQLPGAKDEIMKRALGLKGDLPELAKQVWLERAY | soluble |
